Legend:
TRIB1(84–372) [1] = target: T1, TRIB1(84–372) (human, UniProt Q96RU8 84-372); experiment: ITC
T1 sequence: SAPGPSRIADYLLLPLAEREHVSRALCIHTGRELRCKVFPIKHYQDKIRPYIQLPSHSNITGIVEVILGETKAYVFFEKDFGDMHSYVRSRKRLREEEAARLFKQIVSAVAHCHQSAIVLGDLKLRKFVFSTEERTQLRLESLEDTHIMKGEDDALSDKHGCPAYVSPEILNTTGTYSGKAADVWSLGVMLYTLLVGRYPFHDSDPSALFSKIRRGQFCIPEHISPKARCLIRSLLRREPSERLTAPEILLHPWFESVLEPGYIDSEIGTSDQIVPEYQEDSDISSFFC

[2] = target: T2, TRIB1(84–343), the pseudokinase part of the crystallised fusion (human, UniProt Q96RU8 84-343); experiment: crystal structure
T2 sequence: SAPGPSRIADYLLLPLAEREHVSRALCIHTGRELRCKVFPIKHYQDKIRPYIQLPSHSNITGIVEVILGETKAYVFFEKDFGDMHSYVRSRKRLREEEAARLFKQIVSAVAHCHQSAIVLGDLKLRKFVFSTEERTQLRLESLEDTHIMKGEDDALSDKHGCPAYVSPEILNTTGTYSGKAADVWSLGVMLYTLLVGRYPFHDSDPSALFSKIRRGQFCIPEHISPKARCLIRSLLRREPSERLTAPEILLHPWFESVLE

WT GST-TRIB1(84–372) = target: T3, WT GST-TRIB1(84–372) (human, UniProt Q96RU8 84-372); experiment: pull-down
T3 sequence: T1 sequence

TRIB1(84–372) [3] = target: T1, TRIB1(84–372); experiment: differential scanning fluorimetry

Binder | binding result (TRIB1(84–372) [1]) | other results
GDMCEHEASIDLSAYIESGEEQL [C/EBPε(31–53) fused to maltose-binding protein] | binds | –
PAMYDDESAIDFSAYIDSMAAVP [C/EBPδ(50–72) fused to maltose-binding protein] | binds | –
GGICEHETSIDISAYIDPAAFND [C/EBPα(53–75), the degron part of the crystallised fusion] | – | binding result [2]: binds
GGICEHETSIDISAYIDPAAFND [His6MBP-C/EBPα(53–75)] | binds | binding result (WT GST-TRIB1(84–372)): binds
GGICEHETSIDISAYIDPAAFND [C/EBPα peptide (53–75)] | – | binding result (TRIB1(84–372) [3]): binds
